Assay results as given in US5804688A, “Compounds and compositions for delivering active agents” (Emisphere Technologies, Inc., priority 1997, dated 1998).
Like-named read-outs stand apart in the source and are kept apart here.

Legend:
[1] = rat, in vivo, 50 mg/kg
Description: (§1) Rats were administered, orally and by intracolonic instillation, dosing solutions of 1 mg/kg of interferon and no carrier.

[2] = In vivo interferon delivery in rats (serum interferon, ELISA); details: 1 mg/kg interferon, no carrier
Description: as §1

O=C(O)CCCc1ccc(NC(=O)COc2ccccc2)cc1 [Compound 9]
Mean peak serum interferon concentration [1]: 2611±695

interferon
Mean peak serum interferon concentration ([2]; intracolonic (IC)): 79±100
Mean peak serum interferon concentration ([2]; oral (PO)): 1951±1857
